In US11649460B2, “DNA aptamers, method for inhibiting human galectin-1 and method of treating a mammal in need thereof” (priority 2020, dated 2023):

How the values were obtained:
[1] = molecular target: T1, native human galectin-1 (hGal1) (Homo sapiens, UniProt P09382); assay: Thermofluor thermal shift assay (TSA), native galectin-1; type: binding; settings: 5 μM protein
T1 construct: 42; made in house; host or cells: E. coli strain M-15
Summary of the method: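 Purified native or alkylated hGal1 (5 μM) was incubated 30 min with increasing aptamer SEQ ID NO.: 4 concentrations in PBS 1× with 5× SYPRO Orange. Samples were heated 25–95 °C at 1 °C/min, and melting temperature was derived from the fluorescence denaturation curves.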

[2] = tested on: OVCAR-3 human ovarian adenocarcinoma cell line; assay: SRB cell proliferation (cytotoxicity) assay, OVCAR-3
From the text: The XLSTAT software was used to determine the IC50, TGI and LC50 values using the four-parameter logistic curve equation.

human galectin-1 (hGal1) = molecular target: T2, human galectin-1 (hGal1) (Homo sapiens, UniProt P09382); assay: Tryptophan fluorescence quenching (Stern-Volmer); type: binding; settings: Stern-Volmer fit; 5 μM hGal1, aptamer 0 to 7.2 μM; read-out: apparent dissociation constant
T2 construct: 42; made in house; host or cells: E. coli strain M-15
Description: Fluorescence measurements were taken by a spectrofluorimeter HITACHI F-4500, the spectra were collected by excitation and emission at a rate of 240 nm per min, using a 5 nm slit widths and recorded at room temperature. A total of 5 μM hGal1 solution was incubated for 10 hours with aptamer aliquots as quencher, from 0 to 7.2 μM, in PBS 1× buffer. The spectra were obtained between 300-450 nm after excitation at 295 nm and all buffer contributions were corrected for measurements. As previously described, the log of fluorescence quenching was evaluated by plotting it versus log of aptamer concentration. The Stern-Volmer equation was used to estimate the number of interacting sites (n) and the apparent kD.
Human galectin-1 tryptophan residue has an emission peak at 348 nm after […] exited. SEQ ID NO.: 4 promotes changes the fluorescence spectrum of Trp68, which is the sole Trp in the subunit of hGal1 and is one of the residues constituting its CRD. Upon the aptamer addition, fluorescence emission decreased (FIG. 1C). The fluorescence quenching log versus aptamer concentration log measurements was plotted and it was fitted with Stern-volmer equation. The best fit established apparent dissociation constant of approximately 31.9 nM and a binding site of 1.5 (FIG. 1D).

T1 sequence (P09382 2-135): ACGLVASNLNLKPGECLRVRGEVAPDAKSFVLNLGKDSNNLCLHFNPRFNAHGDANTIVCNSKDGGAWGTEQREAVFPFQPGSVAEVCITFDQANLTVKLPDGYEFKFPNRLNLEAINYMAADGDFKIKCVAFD
T2 sequence (P09382 2-135): as above

B1: CTGACACAGCAGGTTGGTGCCAACTAACACCATAAGAATACCCCGCTCCAAATAAGCCCACACGTAAACCCGAGTCGAGCAATCTCGAAAT (nucleic acid)
DNA: CTGACACAGCAGGTTGGTGCCAACTAACACCATAAGAATACCCCGCTCCAAATAAGCCCACACGTAAACCCGAGTCGAGCAATCTCGAAAT
modifications: chemistry not given here
notes: DNA aptamer that recognizes human galectin-1
[1]
  variation of denaturation temperature (Tm) of native hGal1: greater variation
[1]; listed as SEQ ID NO.: 4
  variation of denaturation temperature (Tm) of native hGal1: marked decrease in Tm
[2]; 0.781 µM
  Relative viability (%) of test items: 99.6%
[2]; 1.562 µM
  Relative viability (%) of test items: 93.9%
[2]; 3.125 µM
  Relative viability (%) of test items: 89.4%
[2]; 6.25 µM
  Relative viability (%) of test items: 67.2%
[2]; 25 µM
  Relative viability (%) of test items: 37.7%
[2]; 50 µM
  Relative viability (%) of test items: −14.6%
[2]; 100 µM
  Relative viability (%) of test items: −68.1%
[2]; OVCAR-3
  TGI: Concentration for total inhibition of cell growth: 41.931 µM
[2]; read-out: IC50: Concentration to inhibit 50% of cell growth, OVCAR-3
  IC50: 14.2 µM
[2]; read-out: LC50: Concentration for 50% cell death, OVCAR-3
  CC50: 82.4 µM
Human galectin-1 (hGal1)
  Kd: ~0.0319 µM
